Test results taken from PMC6703420, “How Thermophilic Gram-Positive Organisms Perform Extracellular Electron Transfer: Characterization of the Cell Surface Terminal Reductase OcwA” (mBio, 2019).

Tests used:
[1] = biological target: T1, OcwA (Outer cell wall protein A), TherJR_2595 (Thermincola carboxydiphila, UniProt D5XBK3); experiment: […] NMR titration; format: binding; details: 100 μM FMN, 20 mM phosphate pH 7.6, 100 mM KCl, 25°C; slow exchange
T1 construct: native signal peptide replaced by that of S. oneidensis MR-1 stc, cleaved (N-terminus EKPAD); E. coli JM109(DE3), HisTrap purified; ~62 kDa; nine c-type hemes; monomer/dimer mixture; precursor 525 residues

purified protein = substrate: O=NO; experiment: purified protein; format: biochemical, Thermincola carboxydiphila; details: up to 1 mM reduced methyl viologen, 50 mM potassium phosphate pH 7.0, 55°C, anaerobic

Row | Molecule | 31P NMR titration [1] | Km (purified protein) [µM] | kcat (purified protein) [s⁻¹]
1 | Cc1cc2nc3c(=O)[nH]c(=O)nc-3n(C[C@H](O)[C@H](O)[C@H](O)COP(=O)(O)O)c2cc1C [FMN, flavin mononucleotide] | These spectral changes arise from binding of FMN to OcwA in a slow exchange regime |  | 
2 | OcwA (Outer cell wall protein A), TherJR_2595 (Thermincola carboxydiphila JR) (protein, native signal peptide replaced by that of S. oneidensis MR-1 stc, cleaved (N-terminus EKPAD); E. coli JM109(DE3), HisTrap purified; ~62 kDa; nine c-type hemes; monomer/dimer mixture; precursor 525 residues) EKPADSGPAVAQNTEYVGDEACKTCHSDVHSAWSETSHGNFIKDVTKDPKALPGNFEGNYPKMLNFKAEDIQYVLLGKPGALKVQELVGKKGTFGVPADDYPVMWASWDAGKGEWEIEVEAIGEGTPWLSTCAGCHVTGLTVPTDKNPKAAKAFAGFGITCEQCHGPGAKHIKNPQGEKMVISYDAENCGQCHSRGDSVAKTPDGKPFGYPYNDEGQYVPGKKLADYYTVVSVEGDKEGKLFWPTKHAKNSHHLQYPEWLMTGHATALETLKGNGHAQDRCLKCHSAEAYLAKEGTTVTMNDAKLGVTCQVCHASHDPAATKEAFLRKPKTEICTQCHNAEGGIVAGKEVHHPHKEMNEGKIGLGFPDSPSVMYKAGVTCVDCHMPKTAGPKASHLMKVVMPKDGKANGMPDSCSSCHPGASQDYLQNVIDTWQNDIKGRLAKVKAKLDAKKAAANSQAYKEALTYYSIVAADGSNGVHNYDLAVKLLTAAEQKLQ |  | 65 | 0.017
